The source of these data is US20030092157, “Compositions, screening systems and methods for modulating HDL cholesterol and triglyceride levels” (published 2003).

Series [1] deals with T1, LXRα/RXRα heterodimer (/ Mus musculus, UniProt Q13133;P28700 Q13133:1-447,P28700:1-467).
T1 sequence 1: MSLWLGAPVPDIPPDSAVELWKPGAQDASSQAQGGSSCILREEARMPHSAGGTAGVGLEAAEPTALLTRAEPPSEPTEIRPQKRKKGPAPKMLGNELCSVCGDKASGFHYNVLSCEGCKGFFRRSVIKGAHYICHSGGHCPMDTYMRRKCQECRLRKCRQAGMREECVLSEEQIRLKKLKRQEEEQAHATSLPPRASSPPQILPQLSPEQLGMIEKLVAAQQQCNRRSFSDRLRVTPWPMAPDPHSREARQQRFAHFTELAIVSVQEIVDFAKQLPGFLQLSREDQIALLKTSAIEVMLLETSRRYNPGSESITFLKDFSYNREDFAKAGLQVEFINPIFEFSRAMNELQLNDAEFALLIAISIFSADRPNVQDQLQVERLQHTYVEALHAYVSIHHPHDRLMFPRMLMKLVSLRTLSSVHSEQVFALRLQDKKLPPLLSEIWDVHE
T1 sequence 2: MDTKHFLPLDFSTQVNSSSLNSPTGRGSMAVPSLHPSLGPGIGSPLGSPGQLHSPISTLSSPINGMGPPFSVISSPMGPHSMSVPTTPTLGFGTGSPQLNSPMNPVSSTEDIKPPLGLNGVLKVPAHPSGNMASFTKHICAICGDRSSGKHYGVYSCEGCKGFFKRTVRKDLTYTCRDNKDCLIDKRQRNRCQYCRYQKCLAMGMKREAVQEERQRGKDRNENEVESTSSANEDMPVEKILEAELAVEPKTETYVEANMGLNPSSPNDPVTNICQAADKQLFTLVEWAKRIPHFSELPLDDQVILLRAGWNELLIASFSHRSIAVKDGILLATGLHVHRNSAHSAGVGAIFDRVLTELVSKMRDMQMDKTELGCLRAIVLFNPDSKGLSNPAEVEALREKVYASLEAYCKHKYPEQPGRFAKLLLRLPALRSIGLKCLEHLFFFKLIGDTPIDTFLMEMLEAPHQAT
Briefly: competition; dose-dependent competition, 5-, 25-, 50-fold excess. Particulars: tags: pCDNA3-LXRα and pSG5-mRXRα, TNT coupled transcription/translation system (Promega). Here is the method: (§1) For FIG. 2A, HepG2 (liver), HuH7 (hepatoma), CaCo₂ (intestinal) and RK13 (kidney) cell lines were cotransfected with empty pGI3 vector or pGI3 containing an 8 kb fragment upstream of exon 2 of ABC1 intron 1 (pGI3-8 kb). Cells were then incubated for 48 hour. Luciferase activity was determined and plotted as fold activation relative to empty pGI3-transfected cells. The results of gel mobility shift assays in which LXRα and RXR were incubated as indicated with the radiolabeled probe corresponding to CYP7-LXRE are shown in FIG. 2B.
(§2) To investigate whether these DR4 were indeed able to bind LXR-RXR heterodimers, gel retardation assays were performed (FIG. 2B). […] As a control, the unlabeled LXRE previously described in ABC1 exon 1 (+4-LXRE) (10,11) also competed efficiently for binding. The signal was then competed with increasing quantities of each unlabeled putative LXRE.

Series [2] deals with T2, LXRα/RXR heterodimer (expressed in Cos-1) (Homo sapiens? / Mus musculus?, UniProt Q13133;P28700 Q13133:1-447,P28700:1-467).
T2 sequence 1: T1 sequence 1
T2 sequence 2: T1 sequence 2
Description: cell_activity; 3 copies, luciferase, 1 µM 22(R)-hydroxycholesterol; text's "2-fold and 6-fold, respectively". Here is the method:
(§3) FIG. 3 is a bar graph illustrating that the LXREs are functional for LXRα transactivation. Cos-1 cells were cotransfected with multiple copies of the putative LXREs in the reporter plasmid TKpGI3 and expression plasmids for LXRα and RXR. Cells were then treated for 48 h with 1 μM 22(R)-hydroxycholesterol. Luciferase activity was determined and plotted as fold activation relative to vehicle-treated cells.
(§4) Cells were transfected for 3 hours by lipofection using ExGen 500 (Euromedex) in OPTIMEM 1. Medium was then replaced by Dulbecco's Modified Eagle's Medium (DMEM) containing 0.2% fetal calf serum and cells were incubated for 48 hours. Cell extracts were prepared and assayed for luciferase activity as described(15). Twenty-four hours before transfection, HepG2 cells, HUH7 cells, CaCo2 cells and RK13 cells were plated in 24-well plates in DMEM supplemented with 10% fetal calf serum at 5×10⁴ cells/well. Transfection mixes contained 100 ng of tkpGI3 reporter vector or pGI3 containing an 8 kb fragment from ABC1 intron I (pGI3-8 kb) (FIG. 1). Cos-1 cells were plated in 24-well plates in DMEM supplemented with 10% fetal calf serum at 5×10⁴ cells/well. Transfection mixes contained 50 ng of reporter plasmid (tkpGI3) containing multiple copies of the putative LXREs and 25 ng of LXRα and RXR expression plasmids, in the presence of the internal control β-gal expression vector. […]

The target of series [3] is T1, LXRα/RXRα heterodimer. Briefly: competition; competed efficiently for CYP7-LXRE probe. Particulars: tags: pCDNA3-LXRα and pSG5-mRXRα, TNT coupled transcription/translation system (Promega). Here is the method:
as §1, §2

For series [4], the target named is T2, LXRα/RXR heterodimer (expressed in …). Description: cell_activity; 3 copies, luciferase, 1 µM 22(R)-hydroxycholesterol. Here is the method:
as §3, §4

B1: -7188 LXRE (ABC1 intron 1) (dsDNA)
DNA 1: AGATCACTTGAGGTCA
DNA 2: TGACCTCAAGTGATCT
For B1, the binding result in series [1] is on record as “binds”.

B2: -7670 LXRE (ABC1 intron 1) (dsDNA)
DNA 1: AGGTTACTGAAGGCCA
DNA 2: TGGCCTTCAGTAACCT
Regarding B2, the activity in series [2] came to 6 fold induction.

B3: +4-LXRE (ABC1 exon 1/promoter) (dsDNA)
DNA 1: AGGTTACTATCGGTCA
DNA 2: TGACCGATAGTAACCT
As to B3, in series [3], the binding result was “binds”.

B4: -4696 LXRE (ABC1 intron 1) (dsDNA)
DNA 1: GGATCACCTGAGGTCA
DNA 2: TGACCTCAGGTGATCC
For B4, the activity in series [4] is 2 fold induction.
